T1: CD123 (target of Example 19) (Homo sapiens (Human), UniProt P26951 19-305, limits assumed)
T1 sequence: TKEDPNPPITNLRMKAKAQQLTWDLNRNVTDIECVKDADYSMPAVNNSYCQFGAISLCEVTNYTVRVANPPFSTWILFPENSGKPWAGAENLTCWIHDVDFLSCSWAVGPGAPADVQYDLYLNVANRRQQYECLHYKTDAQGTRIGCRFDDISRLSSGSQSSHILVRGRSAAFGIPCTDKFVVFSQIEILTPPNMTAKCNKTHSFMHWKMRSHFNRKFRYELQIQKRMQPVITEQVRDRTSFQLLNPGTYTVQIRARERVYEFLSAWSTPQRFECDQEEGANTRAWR


These binders were tested against T1, CD123 (target of Example 19) (assay: library selection; assay not described).

binding result | Binder
binds | SEQ ID NO 122 (designed binder) MGSWIEFEDRLEAIEDRLFALGGSEAELAAFEKEIAAFESELQAYKGKGNPEVEWLRQEAAEIRLMLQAYRHN
binds | SEQ ID NO 104 (designed binder) MGSWTEFHDRLEAIDDRLWALGGSEAELAAFEKEIAAFESELQAYKGKGNPEVEYLREEAAQIRWELQAYRHN
binds | SEQ ID NO 120 (designed binder) MGSWYEFENRLEAIEERLWALGGSEAELAAFEKEIAAFESELQAYKGKGNPEVEMLREEAAFIRDWLQAYRHN
binds | SEQ ID NO 87 (designed binder) MGSWTEFKGELAEIKWILEALGGSEAELAFFEDEIAAFEWDLQKYKGKGNPEVEALRKEAAAIRDELQAYRHN
binds | SEQ ID NO 103 (designed binder) MGSWIEFEVRLDAIYNRLAALGGSEAELAAFEKEIAAFESELQAYKGKGNPEVERLRRYAANIRHELQAYRHN
binds | SEQ ID NO 123 (designed binder) MGSWTEFNLRLDAIYDRLMALGGSEAELAAFEKEIAAFESELQAYKGKGNPEVEWLRASAAAIRVELQAYRHN
binds | SEQ ID NO 126 (designed binder) MGSWHEFGVRLDAIYDRLMALGGSEAELAAFEKEIAAFESELQAYKGKGNPEVEFLRQAAANIRSELQAYRHN
binds | SEQ ID NO 125 (designed binder) MGSWSEFHVRLDAIYARLDALGGSEAELAAFEKEIAAFESELQAYKGKGNPEVERLREWAANIRRELQAYRHN
binds | SEQ ID NO 105 (designed binder) MGSWYEFHHRLDAIYERLLALGGSEAELAAFEKEIAAFESELQAYKGKGNPEVEWLRSSAANIRKELQAYRHN
binds | SEQ ID NO 94 (designed binder) MGSWTEFAWRLDAIYDRLLALGGSEAELAAFEKEIAAFESELQAYKGKGNPEVEWLRHVAANIRRELQAYRHN
binds | SEQ ID NO 90 (designed binder) MGSWILFKDDLAWIKETLEALGGSEAELAFFEDNIADFEEQLQGYKGKGNPEVEALRKEAAAIRDELQAYRHN
binds | SEQ ID NO 99 (designed binder, also called cg06) MGSWDEFGRRLYAIEWRLYALGGSEAELAAFEKEIAAFESELQAYKGKGNPEVEKLREIAAVIRSNLQAYRHN
binds | SEQ ID NO 89 (designed binder) MGSWSWFKEDLASIKAVLEALGGSEAELAFFESDIAEFEQELQYYKGKGNPEVEALRKEAAAIRDELQAYRHN
binds | SEQ ID NO 85 (designed binder) MGSWHVFKTELADIKFYLEALGGSEAELAMFELWIAEFEHELQDYKGKGNPEVEALRKEAAAIRDELQAYRHN
binds | SEQ ID NO 113 (designed binder) MGSWFEFWDRLDAIEDRLYALGGSEAELAAFEKEIAAFESELQAYKGKGNPEVEELRDEAAWIRGTLQAYRHN

The remaining lines, values behind:

Binder | binding result
SEQ ID NO 93 (designed binder) MGSWSEFWQRLEAIEDRLWALGGSEAELAAFEKEIAAFESELQAYKGKGNPEVEWLRENAAMIRDELQAYRHN | binds
SEQ ID NO 100 (designed binder) MGSWIEFYDRLEAIYDRLDALGGSEAELAAFEKEIAAFESELQAYKGKGNPEVEWLREDAAFIRSWLQAYRHN | binds
SEQ ID NO 118 (designed binder) MGSWFEFWGRLEAIESRLKALGGSEAELAAFEKEIAAFESELQAYKGKGNPEVEELREHAAWIRAYLQAYRHN | binds
SEQ ID NO 110 (designed binder) MGSWYEFEYRLEAIEDRLWALGGSEAELAAFEKEIAAFESELQAYKGKGNPEVEYLREEAAWIRVWLQAYRHN | binds
SEQ ID NO 112 (designed binder) MGSWYEFWDRLEAIDDRLWALGGSEAELAAFEKEIAAFESELQAYKGKGNPEVEALRQEAAWIREELQAYRHN | binds
SEQ ID NO 115 (designed binder) MGSWWEFEMRLEAIEDRLFALGGSEAELAAFEKEIAAFESELQAYKGKGNPEVESLRWEAAFIRDILQAYRHN | binds
SEQ ID NO 111 (designed binder) MGSWVEFENRLEAIENRLWALGGSEAELAAFEKEIAAFESELQAYKGKGNPEVEWLREDAAQIRMMLQAYRHN | binds
SEQ ID NO 84 (designed binder) MGSWYMFKEELADIKWYLEALGGSEAELAWFEDDIAGFEWDLQAYKGKGNPEVEALRKEAAAIRDELQAYRHN | binds
SEQ ID NO 88 (designed binder) MGSWFWFKEDLAFIKEDLEALGGSEAELAWFEDGIAFFEWDLQDYKGKGNPEVEALRKEAAAIRDELQAYRHN | binds
SEQ ID NO 86 (designed binder) MGSWYVFKDELAEIKQFLEALGGSEAELAWFEDDIAEFETQLQHYKGKGNPEVEALRKEAAAIRDELQAYRHN | binds
SEQ ID NO 95 (designed binder) MGSWDEFYYRLEAIEMRLGALGGSEAELAAFEKEIAAFESELQAYKGKGNPEVEELRHYAAQIRHMLQAYRHN | binds
SEQ ID NO 109 (designed binder) MGSWNEFYDRLSAIYFRLQALGGSEAELAAFEKEIAAFESELQAYKGKGNPEVEHLRWYAADIRMILQAYRHN | binds
SEQ ID NO 116 (designed binder) MGSWVEFYDRLHAIYFRLLALGGSEAELAAFEKEIAAFESELQAYKGKGNPEVEDLRWYAADIRLVLQAYRHN | binds
SEQ ID NO 117 (designed binder) MGSWYEFYNRLSAIYARLQALGGSEAELAAFEKEIAAFESELQAYKGKGNPEVEDLRWYAADIRYMLQAYRHN | binds
SEQ ID NO 96 (designed binder) MGSWIEFNMRLDAIYERLVALGGSEAELAAFEKEIAAFESELQAYKGKGNPEVEWLRKVAANIRLELQAYRHN | binds
SEQ ID NO 119 (designed binder) MGSWTEFSIRLEAIYDRLVALGGSEAELAAFEKEIAAFESELQAYKGKGNPEVEVLRTYAANIRHELQAYRHN | binds
SEQ ID NO 97 (designed binder) MGSWSEFNMRLDAIYERLTALGGSEAELAAFEKEIAAFESELQAYKGKGNPEVEWLRHSAARIRLELQAYRHN | binds
SEQ ID NO 127 (designed binder) MGSWYEFSMRLDAIYDRLMALGGSEAELAAFEKEIAAFESELQAYKGKGNPEVEQLRGYAANIRNELQAYRHN | binds
SEQ ID NO 121 (designed binder) MGSWYEFVIRLEAIEDRLWALGGSEAELAAFEKEIAAFESELQAYKGKGNPEVEVLRWYAADIRHELQAYRHN | binds
SEQ ID NO 98 (designed binder) MGSWVEFNIRLDAIYERLYALGGSEAELAAFEKEIAAFESELQAYKGKGNPEVEKLRHWAASIRRELQAYRHN | binds
SEQ ID NO 124 (designed binder) MGSWSEFYLRLDAIYDRLDALGGSEAELAAFEKEIAAFESELQAYKGKGNPEVEWLRKTAANIREELQAYRHN | binds
SEQ ID NO 91 (designed binder) MGSWQWFKDDLAYIKETLEALGGSEAELALFEDMIADFEFELQWYKGKGNPEVEALRKEAAAIRDELQAYRHN | binds
SEQ ID NO 106 (designed binder) MGSWHEFDQRLWAIEERLWALGGSEAELAAFEKEIAAFESELQAYKGKGNPEVETLRLYAALIRHDLQAYRHN | binds
SEQ ID NO 83 (designed binder) MGSWFNFKEELAVIKFQLEALGGSEAELAFFEWVIADFEDDLQEYKGKGNPEVEALRKEAAAIRDELQAYRHN | binds
SEQ ID NO 92 (designed binder) MGSWEEFHSRLDAIDDRLWALGGSEAELAAFEKEIAAFESELQAYKGKGNPEVEWLRWEAATIRETLQAYRHN | binds
SEQ ID NO 108 (designed binder) MGSWYEFENRLGAIGDRLWALGGSEAELAAFEKEIAAFESELQAYKGKGNPEVEWLRDEAAYIRAVLQAYRHN | binds
SEQ ID NO 107 (designed binder) MGSWIEFESRLWAIEDRLLALGGSEAELAAFEKEIAAFESELQAYKGKGNPEVEFLRLEAADIREDLQAYRHN | binds

From patent publication US20180251563A1 (SUBDOMAIN, published 2018)
